B1: G-CSF: recombinant human granulocyte colony stimulating factor (Amgen), cytokine (protein, UniProt P09919 31-207, looked up)
Granulocyte …: TPLGPASSLPQSFLLKCLEQVRKIQGDGAALQEKLVSECATYKLCHPEELVLLGHSLGIPWAPLSSCPSQALQLAGCLSQLHSGLFLYQGLLQALEGISPELGPTLDTLQLDVADFATTIWQQMEELGMAPALQPTQGAMPAFASAFQRRAGGVLVASHLQSFLEVSYRVLRHLAQP

Experiments:
[1] = test system: CD15; experiment: CD15 expression by flow cytometry after G-CSF treatment with or without DANA; format: cell-based, human; settings: for expression of CD15: 10 ng/ml G-CSF, 72 hr
Protocol: Bone marrow cells were treated with 10 ng/mL of G-CSF for 5 days in the presence or absence of 100 mM DANA and expression of CD15 was analyzed by flow cytometry.
(§1) Aliquots of ˜2-5×10^5 cells were washed with PBS, 2% FBS and incubated with primary mAbs. Subsequently, the cells were washed and incubated with species and isotype matched FITC- or PE-labeled polyclonal antibodies. Following this incubation, the cells were washed and FITC or PE fluorescence of cells was determined using a Cytomics FC 500 MPL flow cytometer (Beckman Coulter Inc., Fullerton, Calif.).
(§2) Freshly isolated BM cells were separated into early immature (Band 1), late immature (Band 2) and mature (Band 3) myeloid fractions.

[2] = test system: E-selectin ligands on circulating leukocytes; experiment: Clinical collections of leukocytes mobilized by G-CSF administration (ML); format: in vivo, human
Source text: Materials: G-CSF mobilized peripheral blood (MPB) was obtained from pheresis products of donors for clinical HSCT at Brigham and Women's Hospital/Dana Farber Cancer Institute (Boston, Mass.). G-CSF MPB leukocytes (ML) were isolated from buffy coat of dextran sedimentated whole blood, followed by hypotonic lysis to remove contaminating red cells. Mononuclear fraction of these cells (ML-M) was isolated by Ficoll-Hypaque (1.077 g/ml; Sigma Aldrich) density gradient centrifugation. Native (unmobilized) peripheral blood was obtained from consenting healthy volunteers, and NL (buffy coat) were isolated using dextran sedimentation as for ML. Peripheral blood mononuclear cells (PBMC) were isolated by Ficoll-Hypaque density gradient centrifugation. Polymorphonuclear leukocytes (PMN) were isolated by dextran sedimentation followed by collecting the cell pellet after Ficoll-Hypaque density gradient centrifugation. Contaminated red cells were removed by hypotonic lysis.
A tissue culture dish containing confluent HUVEC monolayer or CHO cells was loaded into a parallel plate flow chamber (Glycotech; Gaithersburg, Md.). […] Primary tethering^49 was determined by quantifying the number of ML or NL that attached (i.e., interacted) from the free stream directly onto HUVEC monolayer or CHO cells during the first 2 minutes of flow. Secondary attachments (i.e., flowing leukocytes interacting with an already adherent leukocyte on HUVEC monolayer or CHO cells) or leukocytes that rolled into the field of observation from the upstream region were not counted. Average rolling velocity, a quantitative measure of selectin binding strength, was computed (using Scion Image) as the displacement by the centroid of the cell divided by the time interval of observation, 5 sec. […]
Aliquots of ˜2-5×10^5 cells were washed with PBS, 2% FBS and incubated with primary mAbs. […] Following this incubation, the cells were washed and FITC or PE fluorescence of cells was determined using a Cytomics FC 500 MPL flow cytometer (Beckman Coulter Inc., Fullerton, Calif.).

[3] = test system: ST3GalIV, FucT-IV and FucT-VII; experiment: RT-PCR of glycosyltransferases in G-CSF-treated Band 2 BM cells; format: cell-based; settings: immature human BM cells (Band 2), 10 ng/ml G-CSF, 72 hr
Source text: ID NO:1) and antisense [NT] NO:2); FucT-VII, sense [NT] ID NO:3) and antisense [NT] ID NO:4); FucT-IV, sense […] NO:5) and antisense […] NO:6); GAPDH sense [NT] ID NO:8) and antisense [NT] ID NO:9).

[4] = test system: Fuct-IX; experiment: FucT-IX expression after in vitro G-CSF treatment; format: cell-based, human; settings: normal progenitors and mobilized peripheral blood, 10 ng/ml G-CSF, 72 hr
Source text: Lane 1 are normal cells isolated from bone marrow from healthy donor. Lane 2 are G-CSF treated normal progenitors isolated from bone marrow from healthy donor. Lane 3 are untreated cells isolated from G-CSF mobilized blood. Lane 4 are G-CSF treated cells isolated from G-CSF mobilized blood.
CD15 plays a role in innate immunity in priming dendritic cells. Moreover, FTIX fucosylates internal lactosamine units yielding the VIM-2 epitope. While, the VIM-2 is not sLex, but it consists of a terminal sialic acid with an “internal fucosylation” that can function as an E-selectin ligand

[5] = test system: sialidase; experiment: Sialidase expression/activity after G-CSF treatment of human myeloid cells; format: cell-based
Source text: as §2

[6] = test system: Hcell and HECA-452-reactive ˜65 kDa glycoprotein on human BM cells; experiment: In vitro G-CSF treatment of human BM cells, HECA-452 and E-Ig Western blots; format: cell-based
Protocol: Normal human bone marrow (BM) cells were isolated from human BM harvest material (Massachusetts General Hospital, Boston, Mass.). Red cells were separated using dextran sedimentation method. The leukocyte-rich supernatant was subjected to a two-step discontinuous Percoll (Amersham Pharmacia Biotech; Piscataway, N.J.) density gradient centrifugation (1.065 g/ml and 1.080 g/ml; 1000 g for 20 min at 4° C.). […] The cells with least density found at the upper band (“Band 1”) contained early immature cells (myeloblasts and promyelocytes), “Band 2” contained late immature cells (primarily myelocytes and metamyelocytes), and “Band 3” contained the most mature leukocytes (predominantly band and segmented neutrophils) as well as some contaminating red cells, which were subsequently removed by hypotonic lysis. The cells in different bands were collected, washed and used for further studies. In some instances, BM mononuclear cells (BM-MNC) were isolated by Ficoll-Hypaque density gradient centrifugation. CD34+/lineage—subpopulation was isolated from BM-MNC using a negative cell selection StemSep™ human progenitor enrichment cocktail (Stem Cell Technologies Inc.); CD34+ cells were then further isolated by positive selection using anti-CD34 immunomagnetic beads (Miltenyi Biotech.), routinely resulting in populations of >98% CD34+ cells.
Membrane proteins of purified ML-M, ML-G, PMN, or PBMC were isolated as described previously^28,39. Membrane protein suspensions were aliquoted and stored at −20° C. For SDS-PAGE and Western blotting, membrane preparations were diluted in reducing sample buffer, boiled and then separated on 4-20% or 7.5% Criterion Tris-HCl SDS-PAGE gels (Bio-Rad Laboratories). Resolved membrane proteins were transferred to Sequi-blot polyvinylidene diflouride (PVDF) membrane (Bio-Rad Laboratories) and blocked with heat inactivated FBS. Blots were incubated with primary antibodies or E-Ig (each at 1 μg/ml). Appropriate isotype control immunoblots (each at 1 μg/ml) were performed in parallel to evaluate nonspecific binding to protein bands. […]

[7] = test system: endothelial E-selectin; experiment: Parallel plate flow chamber adhesion of G-CSF-treated Band 2 cells on stimulated HUVEC; format: cell-based, human; settings: 72 hr G-CSF, 1.5 dyne/cm^2, IL-1β-stimulated HUVEC
Source text: FIGS. 12A-B illustrates G-CSF treatment enhances the capability of human BM cells to adhere to endothelial E-selectin under physiologic flow conditions. HUVEC were stimulated with IL-1β for 4-6 hrs. Subsequently, untreated or 72 hr. G-CSF-treated Band 2 cells were perfused over HUVEC at 1.5 dyne/cm^2. In certain instances, stimulated HUVEC were pretreated with a mAb to E-selectin prior to use in adhesion assays. […]
A tissue culture dish containing confluent HUVEC monolayer or CHO cells was loaded into a parallel plate flow chamber (Glycotech; Gaithersburg, Md.). […] Primary tethering^49 was determined by quantifying the number of ML or NL that attached (i.e., interacted) from the free stream directly onto HUVEC monolayer or CHO cells during the first 2 minutes of flow. Secondary attachments (i.e., flowing leukocytes interacting with an already adherent leukocyte on HUVEC monolayer or CHO cells) or leukocytes that rolled into the field of observation from the upstream region were not counted. Average rolling velocity, a quantitative measure of selectin binding strength, was computed (using Scion Image) as the displacement by the centroid of the cell divided by the time interval of observation, 5 sec.

[8] = test system: L-selectin; experiment: Flow cytometry of L-selectin on G-CSF-treated BM cells; format: cell-based, human; settings: in vitro, 10 ng/ml G-CSF, 72 hr
Protocol: as §1

[9] = multiple clinical ML collections, G-CSF administration

Molecule | G-CSF-induced increase in CD15 under sialidase inhibition ([1]; bone marrow cells, 10 ng/mL G-CSF for 5 days, 100 mM DANA, flow cytometry) | G-CSF-induced increase of CD15 under sialidase inhibition ([1]; late mature bone marrow and leukocytes, G-CSF-treated) | surface L-selectin expression on circulating leukocytes ([2]; following G-CSF administration, flow cytometry) | E-selectin ligand activity of circulating leukocytes [2, 9] | expression of the E-selectin ligands HCELL and the HECA-452-reactive ˜65 kDa glycoprotein [2, 9] | expression levels of ST3GalIV, FucT-IV and FucT-VII [3] | Fuct-IX expression [4] | expression of sialidase ([5]; bone marrow and leukocytes, 10 ng/ml G-CSF, 72 hr) | sialidase activity ([5]; human myeloid bone marrow cells, 10 ng/mL G-CSF, 24 hours, 4-MU-NANA substrate) | expression of Hcell and the HECA-452-reactive ˜65 kDa glycoprotein ([6]; 10 ng/ml G-CSF, 72 hr, 37° C., predominantly immature Band 1 and Band 2 human BM cells) | HCELL induction on lymphocytes ([6]; lymphocytes in BM or in blood) | inducing HCELL expression among mature myeloid BM cells ([6]; mature myeloid BM cells) | E-selectin binding (primary tethering, rolling velocity on stimulated HUVEC) [7] | L-selectin expression on G-CSF treated cells relative to untreated cells [8] | expression of CD15 ([1]; early immature bone marrow) | expression of CD15 ([1]; late mature bone marrow and leukocytes)
CC(=O)N[C@H]1[C@H]([C@H](O)[C@H](O)CO)OC(C(=O)O)=C[C@@H]1O [DANA, 2-deoxy-2,3-dehydro-N-acetyl-neuraminic acid, reference compound] | blunts G-CSF-induced increase in CD15 | could be prevented |  |  |  |  |  |  |  |  |  |  |  |  |  | 
B1 |  |  | marked decrease in surface L-selectin expression | uniformly increased E-selectin ligand activity | upregulated the expression | increases in expression levels | increases Fuct-IX expression | increase expression of sialidase | increases sialidase activity | up-regulation in expression | not induced | only a variable effect | enhanced E-selectin binding | down-regulation of L-selectin expression | did not has an effect | increased expression of CD15

Source: US8633026B2, “Cytokine induction of selectin ligands on cells” (priority 2006, dated 2014)
